Assay [1] addresses T1, human PVRIG-mIgG2a (human, UniProt Q6DKI7 41-171, limits assumed).
T1 construct: also called hPVRIG-mIgG2a; hPVRIG; not shown: mouse IgG2a Fc
T1 sequence: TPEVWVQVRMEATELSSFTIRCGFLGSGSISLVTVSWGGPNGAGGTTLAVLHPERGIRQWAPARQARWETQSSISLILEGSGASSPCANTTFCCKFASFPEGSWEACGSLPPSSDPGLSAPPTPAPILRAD
In words: ELISA, hPVRIG-mIgG2a coated at 0.5 µg/mL. For orientation: ELISA stands for enzyme-linked immunosorbent assay.

The next assay addresses T2, FcγRIIA H131 (human, UniProt P12318 36-218, limits assumed).
T2 sequence (looked up): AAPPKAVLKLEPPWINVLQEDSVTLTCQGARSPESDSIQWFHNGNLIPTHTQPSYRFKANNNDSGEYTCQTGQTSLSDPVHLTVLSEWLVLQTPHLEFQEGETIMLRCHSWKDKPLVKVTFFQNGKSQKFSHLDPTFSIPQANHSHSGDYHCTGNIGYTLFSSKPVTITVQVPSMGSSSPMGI
Briefly: Biacore, KD from equilibrium analysis. On the procedure:
(§1) K¹ (M) values were calculated from the ratio of the kinetic constants as KD=koff/kₒₙ. K2 (M) values were determined by the analyte concentration at which half of the ligands are occupied at equilibrium.

In another assay the target is T3, FcγRIIA R131 (human, UniProt P12318 36-218, limits assumed).
T3 sequence (looked up): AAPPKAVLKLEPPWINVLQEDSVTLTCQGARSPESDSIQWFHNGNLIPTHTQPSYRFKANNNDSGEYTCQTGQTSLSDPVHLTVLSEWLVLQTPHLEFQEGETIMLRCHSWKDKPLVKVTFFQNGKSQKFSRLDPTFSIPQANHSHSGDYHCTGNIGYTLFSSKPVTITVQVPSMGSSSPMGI
Briefly: Biacore, KD from equilibrium analysis. How it is done: as §1
(In general: In SPR one partner is held on a chip, and binding of the other changes the refractive index at the surface.)

The target in a further assay is T4, FcγRIIB (human, UniProt P31994 46-217, limits assumed).
T4 sequence (looked up): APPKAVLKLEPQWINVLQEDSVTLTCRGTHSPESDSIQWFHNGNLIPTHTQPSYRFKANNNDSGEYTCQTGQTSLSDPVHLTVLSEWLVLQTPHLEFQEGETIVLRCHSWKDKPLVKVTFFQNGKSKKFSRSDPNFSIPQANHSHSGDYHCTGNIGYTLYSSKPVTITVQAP
Briefly: Biacore, KD from equilibrium analysis. How it is done: as §1

Another assay deals with FcγRIIIA F158 (human, UniProt P08637 17-208, limits assumed). In words: Biacore, KD from equilibrium analysis. On the procedure: as §1
FcγRIIIA F158, sequence (P08637 17-208 limits assumed): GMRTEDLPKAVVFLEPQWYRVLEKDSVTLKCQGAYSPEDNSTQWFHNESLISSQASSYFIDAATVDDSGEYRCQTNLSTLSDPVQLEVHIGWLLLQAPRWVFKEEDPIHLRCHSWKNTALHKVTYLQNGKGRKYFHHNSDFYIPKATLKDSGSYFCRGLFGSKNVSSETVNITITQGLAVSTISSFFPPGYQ
The next assay addresses FcγRIIIA V158 (human, UniProt P08637 17-208, limits assumed). In words: Biacore, KD from equilibrium analysis. How it is done: as §1
A further assay has as its target T5, hPVRIG-ECD-his (human, UniProt Q6DKI7 41-171).
T5 construct: Acrobiosystems PVG-H52H4; also called hPVRIG-His; human PVRIG-His; not shown: His tag
T5 sequence: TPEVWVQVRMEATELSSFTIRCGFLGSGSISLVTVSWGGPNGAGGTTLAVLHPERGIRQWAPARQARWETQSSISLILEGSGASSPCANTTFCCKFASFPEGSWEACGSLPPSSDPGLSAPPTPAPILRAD
In words: SPR (Biacore), BGA384 captured via anti-human Fc, human PVRIG-His analyte. On the procedure:
SPR koff and kₒₙ were calculated using the one-to-one Langmuir binding model (BIA Evaluation Software, GE Life Sciences); KD was calculated as the ratio of koff/kₒₙ.

Assay [2] concerns the target T6, Cyno PVRIG expressed on HEK293 cells (cynomolgus monkey).
T6 construct: also called native Cyno PVRIG
T6 chain: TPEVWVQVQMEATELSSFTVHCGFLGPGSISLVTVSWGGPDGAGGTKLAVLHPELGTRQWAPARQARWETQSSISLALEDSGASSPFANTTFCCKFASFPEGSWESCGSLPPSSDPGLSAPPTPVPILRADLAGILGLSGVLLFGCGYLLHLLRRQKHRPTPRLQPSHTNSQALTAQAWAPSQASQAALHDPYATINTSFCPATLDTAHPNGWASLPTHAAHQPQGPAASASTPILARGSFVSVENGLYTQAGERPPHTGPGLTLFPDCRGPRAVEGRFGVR
In words: flow cytometry on HEK293 cells expressing cyno PVRIG, anti-hFc-647 detection [panel B]. On the procedure:
To evaluate the binding activity of anti-PVRIG antibodies to native Cyno PVRIG on living cells. HEK293 cells were engineered to express Cyno PVRIG. HEK293 cells transfected with Cyno PVRIG were seeded in 96 well plates and were incubated with a serial dilution of anti-PVRIG antibodies. […] EC50 values for dose dependent binding to Cyno native PVRIG were determined by fitting the dose response data to the four-parameter logistic model with GraphPad Prism™.
A general note: In flow cytometry, cells or beads pass a laser one at a time.

In assay [3] the target is T7, human PVRIG expressed on cells (human, UniProt Q6DKI7 41-326).
T7 construct: Jurkat cells engineered to express human PVRIG; also called hPVRIG-Jurkat; native human PVRIG
T7 sequence: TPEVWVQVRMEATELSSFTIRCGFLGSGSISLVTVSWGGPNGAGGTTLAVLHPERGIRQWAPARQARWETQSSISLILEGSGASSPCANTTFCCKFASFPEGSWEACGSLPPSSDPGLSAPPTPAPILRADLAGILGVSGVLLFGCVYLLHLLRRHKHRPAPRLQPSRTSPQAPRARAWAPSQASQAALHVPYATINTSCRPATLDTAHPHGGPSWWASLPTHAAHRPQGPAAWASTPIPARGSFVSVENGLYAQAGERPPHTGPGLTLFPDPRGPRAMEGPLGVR
Briefly: flow cytometry on Jurkat cells expressing human PVRIG, anti-hFc-647 detection [panel B]. On the procedure:
To evaluate the binding activity of anti-PVRIG antibodies to native PVRIG on living cells, Jurkat cells were engineered to express human PVRIG. Jurkat cells expressing PVRIG were seeded in 96 well plates and were incubated with serially diluted anti-PVRIG antibodies. […] EC50 values for dose dependent binding to human native PVRIG were determined by fitting the dose response data to the four-parameter logistic model with GraphPad Prism™.

Assay [4] deals with T1, human PVRIG-mIgG2a. Briefly: cell-based competition, BGA384 against binding of hPVRIG-mIgG2a (300 ng/ml) to Farage-hPVRL2 cells, flow cytometry. From the text:
The bound human PVRIG was detected with PE anti-mouse IgG2a antibody by flow cytometry.

The target in the next assay is Human C1q (human, UniProt P02745 23-245; P02746 28-253; P02747 29-245). Briefly: ELISA: plate coated with increasing amounts of antibody, human C1q at 8 µg/mL, anti-C1q antibody detection. On the procedure: Human C1q (100 uL total: 8 μg/mL) was incubated in the antibody-coated wells. Bound C1q was detected by a specific anti-C1q monoclonal antibody. ELISA readings at 450 nm were plotted on the y-axis.
Human C1q, sequence (P02745 23-245 limits assumed, chain 1 of 3): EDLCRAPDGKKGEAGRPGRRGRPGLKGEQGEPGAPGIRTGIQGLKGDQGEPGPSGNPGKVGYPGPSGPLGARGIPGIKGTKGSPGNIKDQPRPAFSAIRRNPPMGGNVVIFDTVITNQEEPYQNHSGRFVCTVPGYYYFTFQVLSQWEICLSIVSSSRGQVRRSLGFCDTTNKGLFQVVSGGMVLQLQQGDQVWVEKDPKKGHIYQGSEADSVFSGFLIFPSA
Human C1q, sequence (P02746 28-253 limits assumed, chain 2 of 3): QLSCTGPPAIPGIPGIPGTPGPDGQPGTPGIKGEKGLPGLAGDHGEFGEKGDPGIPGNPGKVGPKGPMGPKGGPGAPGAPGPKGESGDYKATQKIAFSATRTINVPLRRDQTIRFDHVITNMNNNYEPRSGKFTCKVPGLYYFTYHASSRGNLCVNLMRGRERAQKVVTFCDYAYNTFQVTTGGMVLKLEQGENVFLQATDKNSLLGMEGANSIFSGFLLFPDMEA
Human C1q, sequence (P02747 29-245 limits assumed, chain 3 of 3): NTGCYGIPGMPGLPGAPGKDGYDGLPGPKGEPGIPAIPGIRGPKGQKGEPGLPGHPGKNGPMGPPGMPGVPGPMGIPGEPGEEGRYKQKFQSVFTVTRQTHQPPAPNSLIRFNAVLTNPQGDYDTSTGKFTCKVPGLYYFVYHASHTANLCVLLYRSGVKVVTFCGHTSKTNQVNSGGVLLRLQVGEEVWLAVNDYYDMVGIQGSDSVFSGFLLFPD

FcγRIIIA V158, sequence (P08637 17-208 F176V limits assumed): as the sequence (P08637 17-208 limits assumed) above, with F160V counted along it

B1: BGA384 (antibody, human IgG1, kappa)
heavy: not shown
light: QIVLTQSPATLSLSPGERATLSCSAGSSVNYMHWFQQKPGQAPRLLIYSTSNLASGVPARFSGSGSGTDYTLTISSLEPEDFAVYYCQQRSSLPFTFGQGTKLEIKRTVAAPSVFIFPPSDEQLKSGTASVVCLLNNFYPREAKVQWKVDNALQSGNSQESVTEQDSKDSTYSLSSTLTLSKADYEKHKVYACEVTHQGLSSPVTKSFNRGEC
notes: also called BGB-A538; BGA384 WT
In general, EC50 refers to the midpoint of the concentration-response curve. Low readings indicate greater potency, high ones weaker potency. For orientation: Kd means the free concentration of one partner at which half of the binding sites on the other are occupied at equilibrium, for simple one-to-one binding. Read a high Kd as weaker binding. One may read the koff as a measure of how fast the partners let go of each other. A lower koff goes with slow dissociation. The kon is a measure of how fast the partners come together. A high value points to fast association. As a reminder, the EC50 (read off the curve) is the concentration that produces a half-maximal response. As usually defined, the IC50 is the concentration that gives 50% inhibition. A lower IC50 goes with inhibition by little substance. In the assay with human PVRIG-mIgG2a [1], B1 registered an EC50 of 0.00879 µg/mL. In addition, the Kd came to 1.48 µM in the assay with FcγRIIA H131; 1.92 µM with FcγRIIA R131; 9.23 µM with FcγRIIB; 0.689 µM in the assay with FcγRIIIA F158; 0.297 µM with FcγRIIIA V158; 82.6 pM in the assay with hPVRIG-ECD-his. Further, in the assay with hPVRIG-ECD-his, the koff stood at 0.000344 s⁻¹. Besides, the kon with hPVRIG-ECD-his was 4.16e+06 M⁻¹ s⁻¹. Further, the “EC50 (read off the curve)” value in [2] is about 0.05 µg/mL; in assay [3] it was about 0.03 µg/mL; with Human C1q, about 2 µg/mL. The molecule also had an IC50 with human PVRIG-mIgG2a [4] of 0.109 µg/mL.

(Values after US20250326842A1 (BEIGENE SWITZERLAND, published 2025).)
